Data taken from patent US20130347134A1, “TRANSGENIC VON WILLEBRAND FACTOR ANIMALS AND USES THEREOF” (priority 2012, published 2013).
One block for each substance: values may come before it.

How the values were obtained:
[1] = target: human platelet glycoprotein Ib alpha (GPIb α) on human platelets (human) (UniProt P07359); assay: cell-based or functional assay
[2] = target: human platelet glycoprotein Ib alpha (GPIb α) on human platelets (human) (UniProt P07359); assay: blocking in a parallel-plate flow chamber: human whole blood treated with mAb AP-1 perfused over surface-immobilized murine plasma VWF R1326H (the blocked ligand), shear rate 1,600 s^-1; about 4,600 without antibody
[3] = target: human platelet glycoprotein Ib alpha (GPIb α) on human platelets (human) (UniProt P07359); assay: blocking in a parallel-plate flow chamber: human whole blood treated with mAb 6D1 perfused over surface-immobilized murine plasma VWF R1326H (the blocked ligand), shear rate 1,600 s^-1; about 4,600 without antibody
[4] = target: human platelet integrin αIIb β3 on human platelets (human) (UniProt P08514); assay: cell-based or functional assay
[5] = target: murine platelet glycoprotein Ib alpha (GPIb α) on mouse platelets (mouse) (UniProt O35930); assay: cell-based or functional assay
murine platelet glycoprotein Ib alpha (GPIb α) on mouse platelets (mouse), sequence (O35930 17-734): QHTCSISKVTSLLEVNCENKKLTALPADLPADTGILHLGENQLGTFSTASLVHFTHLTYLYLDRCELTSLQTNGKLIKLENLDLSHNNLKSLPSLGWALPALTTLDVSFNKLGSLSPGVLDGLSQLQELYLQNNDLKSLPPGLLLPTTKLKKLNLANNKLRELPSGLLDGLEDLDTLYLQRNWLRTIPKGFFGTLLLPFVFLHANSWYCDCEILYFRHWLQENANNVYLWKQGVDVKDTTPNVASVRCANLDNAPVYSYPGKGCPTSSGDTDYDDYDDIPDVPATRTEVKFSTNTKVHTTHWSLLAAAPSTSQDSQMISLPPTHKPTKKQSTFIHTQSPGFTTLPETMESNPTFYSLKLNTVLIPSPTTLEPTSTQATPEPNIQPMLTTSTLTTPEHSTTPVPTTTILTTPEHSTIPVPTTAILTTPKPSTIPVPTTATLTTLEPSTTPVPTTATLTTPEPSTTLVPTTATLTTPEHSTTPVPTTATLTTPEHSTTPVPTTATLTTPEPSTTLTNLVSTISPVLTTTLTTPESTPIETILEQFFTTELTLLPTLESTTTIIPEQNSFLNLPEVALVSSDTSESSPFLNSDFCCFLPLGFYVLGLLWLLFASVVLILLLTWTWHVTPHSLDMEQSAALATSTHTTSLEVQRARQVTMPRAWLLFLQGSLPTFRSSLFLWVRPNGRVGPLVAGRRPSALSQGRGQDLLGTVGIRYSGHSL

[6] = target: human platelet glycoprotein Ib alpha (GPIb α) on human platelets (human) (UniProt P07359); assay: translocation of human platelets on immobilized plasma VWF in flow
[7] = target: human platelet glycoprotein Ib alpha (GPIb α) on human platelets (human) (UniProt P07359); assay: human whole blood over immobilized protein, parallel-plate flow chamber, 1600 s^-1

- human platelet thrombus size in VWF^1326R>H mice after pre-treatment with the mAb [1]: 198 µm^2
- Human platelet accumulation/mm2 [2]: 0 /mm2
Substance: GPIb α function-blocking antibody AP-1

- human platelet thrombus size in VWF^1326R>H mice after pre-treatment with the mAb [1]: 265 µm^2
- Human platelet accumulation/mm2 [3]: 0 /mm2
Substance: function-blocking monoclonal antibody 6D1 (anti-human GPIb α)

- human platelet thrombus size in VWF^1326R>H mice after pre-treatment with the mAb [4]: 529 µm^2
Substance: function-blocking monoclonal antibody 7E3 (anti-human αIIb β3)

- average thrombus size, human platelets in homozygous VWF^1326R>H mice [1]: 8950 µm^2
- tail bleeding time of VWF^1326R>H mice infused with human platelets [1]: 182 s
- increase in tail bleeding time, heterozygous animals versus WT [5]: 1.9 fold
- reduction in thrombi formed on collagen, whole blood of knock-in mice, 1600 s^-1 [5]: 70%
- reduction in thrombus formation on surface-immobilized collagen, whole blood of homozygous mutant mice (FIG. 26) [5]: 80%
- translocation velocity of human platelets [6]: 3.5 µm/sec
Substance: murine plasma VWF containing the 1326R>H mutation (VWF^1326R>H), Q8CIZ8 764-2813
- share of human cells in thrombi, laser injury in homozygous VWF^1326R>H mice [1]: 91.7%

- share of human platelets in total thrombus area, WT mice [1]: 5.7%
- ristocetin-induced platelet aggregation (RIPA), murine PRP, 2.5 mg/ml ristocetin [5]: 30%
- platelet deposition relative to same-species control [7]: 10%
Substance: murine plasma von Willebrand factor (VWF), wild type, Q8CIZ8 764-2813
